Data: patent US20240174746A1 (Alector, published 2024)

What was measured:
mouse TMEM106B = target: T1, mouse TMEM106B (mouse, UniProt Q80X71 2-275); assay: flow cytometry, HEK293 cells transiently transfected with murine TMEM106B
T1 construct: Full-length cDNA transiently transfected into HEK293 cells; also called muTMEM106B; murine TMEM106B
Protocol: (§1) For screening of the hybridoma cell culture supernatants, humanTMEM106B-transfected HEK293 cells were aliquoted in 96-well round bottom plates (2×10⁵ cells per well) and incubated with 50 μL of hybridoma cell culture supernatant on ice for 30 minutes. […] Cell sorting was performed on a FACS Canto system (BD Biosciences) or iQue (Intellicyt), with sort gates drawn to exclude dead (i.e., propidium iodide-positive) cells. Median fluorescence intensity (MFI) of anti-mouse-APC MFI on TMEM106B+ HEK293 cells was calculated for each clone, and those displaying a signal of at least 2-fold over background compared to a secondary-antibody only well were taken forward for further analysis and characterization.

human TMEM106B = target: T2, human TMEM106B (human, UniProt Q9NUM4 2-274); assay: flow cytometry, HEK293 cells transiently transfected with human TMEM106B
T2 construct: Full-length cDNA transiently transfected into HEK293 cells; also called huTMEM106B
Protocol: as §1

[1] = target: T3, cynomolgus (cyno) TMEM106B (cynomolgus, UniProt Q9NUM4 2-274 (human entry)); assay: flow cytometry, HEK293 cells transiently transfected with cyno TMEM106B
T3 construct: Full-length cDNA transiently transfected into HEK293 cells
Protocol: as §1

fold-change in binding over parental HEK293 cells (mouse TMEM106B) | fold-change in binding over parental HEK293 cells (human TMEM106B) | fold-change in binding over parental HEK293 cells [1] | Binder
2.35 fold | 3.79 fold | 6.1 fold | TM-94 (antibody, V domains shown, Purified from mouse hybridoma) VH: EVQLQQSGPELVKPGASVKIPCKASGYTFTDYNMDWVKQSHGKSLEWIGDINPYNGGTLYNQKFKGKATLTVDKSSNTAYMEIRSLTYEDTAVYYCARVGYHGTPDYWGQGTTVTVSS VL: DVVMTQTPLSLPVSLGDQASISCRSSQSLVYSNGNTYLHWYLQRPGQSPKLLIYKVSNRFSGVPDRFSGSGSGTDFTLKISRVEAEDLGVYFCSQSTHVYTFGGGTKLEIK
8.83 fold | 11.5 fold | 9.21 fold | TM-93 (antibody, V domains shown, Purified from mouse hybridoma) VH: QVQLKESGPGLVAPSQSLSITCTVSGFSLSSYGISWVRQPPGKGLEWLGVIWTGGGTNYNSALESRLSITKDNSKSQVFLKMNSLQTDDTARYYCARNPPKIFYDYLMYFDYWGQGTTVTVSS VL: DIVMTQSHKLMSTSVGDRVSITCKASQDVGSAVAWYQQKPGQSPQLLIYWSSTRLPGVPDRFTGSGSGTDFTLTISNVQSEVLADYFCQQYTSYPLTFGGGTKLEIK
